Experimental findings from patent publication US20050142634 are described below.

This data set relates to modulator of non-genomic activity of nuclear receptors (MNAR).

As to cSrc, the “cSrc enzymatic activity (acid denatured enolase as a substrate, [32P]-γATP, SDS-PAGE autoradiography)” value was “MNAR itself strongly stimulates cSrc enzymatic activity”.
